Reference: PMC8528721, “Hop2 interacts with the transcription factor CEBPα and suppresses adipocyte differentiation” (The Journal of Biological Chemistry, 2021)

T1: CEBPδ in nuclear extracts of COS1 cells (UniProt Q00322 1-268)
T1 sequence (looked up): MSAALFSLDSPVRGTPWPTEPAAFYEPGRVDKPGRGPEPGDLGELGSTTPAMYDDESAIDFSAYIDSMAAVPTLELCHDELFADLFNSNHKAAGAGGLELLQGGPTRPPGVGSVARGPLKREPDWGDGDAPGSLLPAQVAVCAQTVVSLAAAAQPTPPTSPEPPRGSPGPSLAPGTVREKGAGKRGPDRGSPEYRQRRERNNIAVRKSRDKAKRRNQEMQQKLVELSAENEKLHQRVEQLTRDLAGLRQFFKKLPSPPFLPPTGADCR

T2: endogenous CEBPβ (CCAAT enhancer binding protein beta) (mouse (endogenous in mouse visceral …, UniProt P28033-1 1-296))
T2 sequence (looked up): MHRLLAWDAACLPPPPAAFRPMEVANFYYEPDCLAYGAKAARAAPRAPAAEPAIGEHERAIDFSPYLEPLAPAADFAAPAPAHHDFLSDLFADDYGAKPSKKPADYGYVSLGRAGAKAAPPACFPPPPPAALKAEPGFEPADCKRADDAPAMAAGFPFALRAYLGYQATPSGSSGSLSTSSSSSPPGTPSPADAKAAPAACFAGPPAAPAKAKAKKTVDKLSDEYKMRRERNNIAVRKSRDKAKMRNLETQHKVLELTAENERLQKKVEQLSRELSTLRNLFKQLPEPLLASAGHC


Tests used:
[1] = target: T1, CEBPδ in nuclear extracts of COS1 cells; experiment: cell-based or functional assay
Flag-tagged CEBPα = Flag-tagged CEBPα (UniProt P53566 1-359); experiment: cell-based or functional assay
Sequence of Flag-tagged CEBPα (P53566 whole entry): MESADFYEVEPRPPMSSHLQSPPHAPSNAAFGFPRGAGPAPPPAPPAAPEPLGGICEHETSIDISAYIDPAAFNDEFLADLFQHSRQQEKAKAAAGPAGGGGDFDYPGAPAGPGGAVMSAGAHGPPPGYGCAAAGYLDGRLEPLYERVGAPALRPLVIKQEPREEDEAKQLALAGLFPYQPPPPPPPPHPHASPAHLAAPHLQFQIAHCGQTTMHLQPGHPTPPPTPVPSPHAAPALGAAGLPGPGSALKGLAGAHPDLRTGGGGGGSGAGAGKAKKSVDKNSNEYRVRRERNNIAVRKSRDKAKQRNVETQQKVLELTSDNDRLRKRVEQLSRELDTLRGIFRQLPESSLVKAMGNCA

[2] = target: T2, endogenous CEBPβ (CCAAT enhancer …); experiment: cell-based or functional assay
His-CEBPα = His-CEBPα (UniProt P53566 1-359); experiment: EMSA; no Hop2; EMSA: 5 pmol probe, room temperature, 10 min; buffer, salt and pH not given (refs 36, 55); settings: protein: recombinant; tags: His; chain copies: 2; label: 32P; self-annealed, two copies of the strand; 20 bp duplex with 5' overhang 4 nt (GATC) at both ends
Sequence of His-CEBPα (P53566 whole entry): as above

Row | Binder | C3-Luc reporter activity in COS1 cells cotransfected with CEBPδ and Hop2 (5.7-fold brought down to 2.2-fold) [1] [% suppression] | Leptin-Luc reporter activity in COS1 cells cotransfected with CEBPδ and Hop2 (31.9- to 1.4-fold) [1] [% inhibition] | C3-Luc reporter activity in COS1 cells cotransfected with CEBPα and Hop2 (6.1-fold brought down to 1.6-fold) (Flag-tagged CEBPα) [% suppression] | Leptin-Luc reporter activity in COS1 cells cotransfected with CEBPα and Hop2 (35.7- to 12.2-fold) (Flag-tagged CEBPα) [% inhibition] | C3-Luc reporter activity in COS1 cells cotransfected with CEBPβ and Hop2 (4.5-fold brought down to 3.1-fold) [2] [% suppression] | Leptin-Luc reporter activity in COS1 cells cotransfected with CEBPβ and Hop2 (21.0- to 1.7-fold) [2] [% inhibition] | binding result (His-CEBPα)
1 | hemagglutinin (HA)-tagged Hop2 (natural protein, UniProt O35047 1-217, looked up) MSKSRAEAAAGAPGIILRYLQEQNRPYSAQDVFGNLQKEHGLGKAAVVKALDQLAQEGKIKEKTYGKQKIYFADQNQFDTVSDADLHGLDASIVALTAKVQSLQQSCRHMEAELKELTSALTTPEMQKEIQELKKECAQYTERLKNIKAATNHVTPEEKEKVYRDRQKYCKEWRKRKRMTTELCDAILEGYPKSKKQFFEEVGIETDEDHNVLLPDP | 61 | 97 | 74 | 66 | 31 | 92 | –
2 | CEBP consensus palindrome probe (dsDNA) DNA 1: GATCTGCAGATTGCGCAATCTGCA DNA 2: GATCTGCAGATTGCGCAATCTGCA | – | – | – | – | – | – | binds
